Entries after “also recorded” stand apart in the source; their conditions may differ. Where no end group is shown, it is not given here. [ ]: non-standard residue; d: D form. Sec = N[C@@H](C[SeH])C(=O)O
Columns and labels:
[1] = cited from earlier work
[2] = tested on: Dami cells; test: Cytotoxicity-inhibitory (cell death-inhibitory) activity assay using Dami cells; type: cell-based; conditions: for cytotoxicity-inhibitory activity: Dami cells, fatty acid-containing assay medium, 4 to 5 days, survival of the cells
Experimental: Using Dami cells (described in Greenberg S. M. et al., Blood, vol. 72, p. 1968-1977 (1988)) for use in assay system for cytotoxicity-inhibitory activity, the cells were washed twice with assay medium (50% PBS/SA/0.03% HSA (manufactured by SIGMA) or SA/0.05% BSA free from fatty acid (WAKO)/4 μM long-chain polyvalent fatty acid (e.g. arachidonic acid, linoleic acid or linolenic acid)) and suspended in the same medium at 3×10^4 cells/ml. The cell suspension was added to a 96-well plate in each 200 μl for wells for sample addition or in each 100 μl for wells for serial dilution. To the wells for sample addition was added each 2 μl assay sample containing either selenoprotein P fragment prepared in Preparation 1, selenocystine, selenomethionine, Ebselen, or sodium selenite at the same concentration. After stirring, a serial dilution was made with the wells containing 100 μl cell suspension. The plate was incubated at 37° C. in CO2 incubator for 4 to 5 days followed by assessment of survival of the cells.

[3] = tested on: gerbil mice; test: Cerebral ischemia/reperfusion injury model (blocking both carotid arteries), degree of paralysis; type: in vivo; conditions: 1 mg/animal i.v., vs control
Experimental: Effect of selenoprotein P on dyskinesia induced by cerebral ischemia/reperfusion injury was assessed with a degree of paralysis using gerbil mice of 12 weeks old. […] […] A degree of paralysis was assessed after 6 and 24 hours.

[4] = tested on: EAE mice (SJL/JOrIICrj); test: Experimental allergic encephalomyelitis (EAE) in mice, degree of paralysis; type: in vivo, mouse; conditions: 0.5 mg/head daily i.p. Day 8 to Day 13
Experimental: For investigating the effect of selenoprotein P on dyskinesia induced by immunopathy based on a degree of paralysis, an experiment was performed wherein selenoprotein P was administered to EAE mice. Female SJL/JOrIICrj of 14 weeks old (Charles River Japan, Inc.) was used as a test animal. Myelin proteolipid protein (PLP) synthetic peptide 139-151 (amino acid sequence: His Ser Leu Gly Lys Trp Leu Gly His Pro Asp Lys Phe (SEQ ID NO: 6); […]) as an immunogen was intradermally administered to the mice together with Freund complete adjuvant H37Ra ([…]) and pertussis toxin (manufactured by List Biological Laboratory; 200 ng/mouse) at two portions at the neck of tail.
Thirteen mice each in two groups received daily 0.5 mg/head of selenoprotein P via intraperitoneal administration from the day (Day 8) previous to onset of the disease till Day 13. A control group received saline via intraperitoneal administration.

[5] = tested on: hNT cells; test: Survival and protrusion formation in cultured human neurocytes; type: cell-based
Experimental: NT2 (Ntera2/D1) (Pleasure, S. J. and Lee, V. M., 1993, J. Neurosci. Res. 35: 585-602) is a progenitor neurocyte derived from human teratocarcinoma and can be differentiated with retinoic acid into hNT neurocytes having the properties of the nerve in the central nervous system (Trojanowski, J. Q. et al., 1993 Exp. Neurol. 122: 283-294). Effect of selenoprotein P on protrusion formation in the hNT cells was investigated.
Both NT2 and hNT cells can be cultured in CO2 incubator at 37° C. The hNT cells were prepared as follows: NT2 cells, being capable of passage culture in 10% FCS/D-MEM/F-12 medium, were first plated at 2.5×10^5 cells/ml. After 24 hours, the culture medium was replaced with D-MEM/F-12 containing 10 μM all-trans retinoic acid to initiate induction. The culture was subsequently continued for six weeks while replacing with the same medium every three days to differentiate NT2 cells into hNT cells. All the differentiated cells were recovered and expanded by 3-folds by passage culture with 10% FCS/D-MEM/F-12 medium. After 48 hours, the cells were plated at 3 to 4×10^6 cells/ml. After 48-hour culture, the culture medium was replaced with 5% FCS/D-MEM/F-12 plus mitotic inhibitor (10 μM Fluorodeoxyuridine, Uridine, 1 μM cytosine arabinoside) and culture was continued for ten days while replacing with the same medium every three days. Subsequently, the culture was treated with trypsin for a short time period and then lightly tapped to release the hNT cells which were recovered. The recovered cells were suspended in a mixed medium of an equal amount of NT2 culture supernatant (10% FCS/D-MEM/F-12 medium) and a fresh 10% FCS/D-MEM/F-12 medium. The suspension was plated on Laminin coating plate to maintain the cells. The hNT cells thus obtained were used in the following experiment.
The hNT cells were recovered by trypsin treatment, washed with a basal medium of RPMI 1640/D-MEM/F-12 (1:2:2), suspended in the same basal medium and cultured in 96-well plate at 3000 cells/well. On Day 5 to Day 7, the cells died completely.

[6] = Toxicity of selenium compounds (cell culture); conditions: in spite of 9 to 10 selenocysteines
Description: Selenium per se, as involved in the present invention, is one of essential trace elements and it is known that deficiency thereof induces a serious deficiency disease accompanied by, for instance, cardiomyopathy. […] Acute toxic symptoms of selenium include, for example, pale face, neurological symptoms, dermatitis, and gastrointestinal disorders.

Question: With N[C@@H](C[Se][Se]C[C@H](N)C(=O)O)C(=O)O [selenocystine] as the molecule, how does the “toxicity when added alone to cell culture” value [1] read?
Answer: Its value is “fairly strong toxicity”.

Question: For “KRCINQLLCKLPTDSELAPRS (cysteine pairing not given here) [SEQ ID NO: 5, selenoprotein P-derived peptide with no selenocysteine, reference compound]”, which cytotoxicity-inhibitory activity [2] is on record?
Answer: Its cytotoxicity-inhibitory activity is “exhibit no cytotoxicity-inhibitory activity”.

Question: For “Lys Arg Cys Ile Asn Gln Leu Leu Cys Lys Leu Pro Thr Asp Ser Glu Leu Ala Pro Arg Ser Xaa Cys Cys His Cys Arg His Leu Ile Phe Glu Lys (KRCINQLLCKLPTDSELAPRS[Sec]CCHCRHLIFEK; cysteine pairing not given here; listed as Homo sapiens) [SEQ ID NO: 4, peptide purified from selenoprotein P fragments under reduced condition; Xaa = selenocysteine]”, which cytotoxicity-inhibitory activity [2] is on record?
Answer: Its cytotoxicity-inhibitory activity is “exhibit cytotoxicity-inhibitory activity”.

B1: selenoprotein P (protein, UniProt P49908 20-381, looked up)
Selenoprotein P: ESQDQSSLCKQPPAWSIRDQDPMLNSNGSVTVVALLQASUYLCILQASKLEDLRVKLKKEGYSNISYIVVNHQGISSRLKYTHLKNKVSEHIPVYQQEENQTDVWTLLNGSKDDFLIYDRCGRLVYHLGLPFSFLTFPYVEEAIKIAYCEKKCGNCSLTTLKDEDFCKRVSLATVDKTVETPSPHYHHEHHHNHGHQHLGSSELSENQQPGAPNAPTHPAPPGLHHHHKHKGQHRQGHPENRDMPASEDLQDLQKKLCRKRCINQLLCKLPTDSELAPRSUCCHCRHLIFEKTGSAITUQCKENLPSLCSUQGLRAEENITESCQURLPPAAUQISQQLIPTEASASURUKNQAKKUEUPSN
Question: Which “cell death-inhibitory activity per proteins” value ([2]; full-length protein compared with fragment fraction from Preparation 1) does the source give for B1 here?
Answer: Its value is “much lower than that of the fragment”.

Question: What about the “degree of paralysis (score, Table 1)” value ([3]; 30 minutes ischemia model, after 6 and 24 hours) of the same molecule?
Answer: Its value is “apparently exhibited better conditions”.

Question: And the “degree of paralysis (score, Table 1)” value ([3]; 45 minutes ischemia model, after 6 hours)?
Answer: Its value is “no significant difference”.

Question: And the “degree of paralysis (score, Table 1)” value ([3]; 45 minutes ischemia model, after 24 hours)?
Answer: Its value is “much difference”.

Question: What about the “onset of the disease” value [4] of the same molecule?
Answer: Its value is “onset of the disease was inhibited”.

Question: What about the “severity of the disease (paralysis score, Table 2)” value [4] of the same molecule?
Answer: The value was “severity of the disease was lowered”.

Question: What about the “survival time of hNT cells” value ([5]; 100 ng/ml, basal medium) of the same molecule?
Answer: The value was “more than two weeks”.

Question: And the “cell death of hNT cells” value ([5]; 100 ng/ml, basal medium RPMI 1640/D-MEM/F-12, without addition cells died completely on Day 5 to Day 7)?
Answer: Its value is “completely inhibited”.

Question: What about the “protrusion formation (cellular morphology)” value ([5]; hNT cells, observed on Day 4, FIG. 3) of the same molecule?
Answer: Its value is “protrusion formation was observed; also recorded: protrusion was formed”.

Question: And the toxicity [6]?
Answer: Its toxicity is “no strong toxicity”.

Reference: US7704951B2, “Method for ameliorating dyskinesia” (Juridical Foundation the Chemo-Sero-Therapeutic Research …, priority 2001, dated 2010)
